According to patent US20130058962A1 (published 2013):
Changes are numbered by the printed parent chain. Several values for one entry are separate records, joined by “and”; a condition that tells them apart may be missing. Equal entries are not always repeated.

What was measured:
[1] = target: T1, Botulinum neurotoxin serotype A1 (BoNT/A) holotoxin (Clostridium botulinum, UniProt P0DPI1 2-1296); test: binding competition assay
[2] = target: Clostridium difficile toxin B (TcdB) holotoxin (Clostridium difficile) (UniProt P18177); test: cell-based or functional assay
Sequence of Clostridium difficile toxin B (TcdB) holotoxin (Clostridium difficile) (P18177 2-2366): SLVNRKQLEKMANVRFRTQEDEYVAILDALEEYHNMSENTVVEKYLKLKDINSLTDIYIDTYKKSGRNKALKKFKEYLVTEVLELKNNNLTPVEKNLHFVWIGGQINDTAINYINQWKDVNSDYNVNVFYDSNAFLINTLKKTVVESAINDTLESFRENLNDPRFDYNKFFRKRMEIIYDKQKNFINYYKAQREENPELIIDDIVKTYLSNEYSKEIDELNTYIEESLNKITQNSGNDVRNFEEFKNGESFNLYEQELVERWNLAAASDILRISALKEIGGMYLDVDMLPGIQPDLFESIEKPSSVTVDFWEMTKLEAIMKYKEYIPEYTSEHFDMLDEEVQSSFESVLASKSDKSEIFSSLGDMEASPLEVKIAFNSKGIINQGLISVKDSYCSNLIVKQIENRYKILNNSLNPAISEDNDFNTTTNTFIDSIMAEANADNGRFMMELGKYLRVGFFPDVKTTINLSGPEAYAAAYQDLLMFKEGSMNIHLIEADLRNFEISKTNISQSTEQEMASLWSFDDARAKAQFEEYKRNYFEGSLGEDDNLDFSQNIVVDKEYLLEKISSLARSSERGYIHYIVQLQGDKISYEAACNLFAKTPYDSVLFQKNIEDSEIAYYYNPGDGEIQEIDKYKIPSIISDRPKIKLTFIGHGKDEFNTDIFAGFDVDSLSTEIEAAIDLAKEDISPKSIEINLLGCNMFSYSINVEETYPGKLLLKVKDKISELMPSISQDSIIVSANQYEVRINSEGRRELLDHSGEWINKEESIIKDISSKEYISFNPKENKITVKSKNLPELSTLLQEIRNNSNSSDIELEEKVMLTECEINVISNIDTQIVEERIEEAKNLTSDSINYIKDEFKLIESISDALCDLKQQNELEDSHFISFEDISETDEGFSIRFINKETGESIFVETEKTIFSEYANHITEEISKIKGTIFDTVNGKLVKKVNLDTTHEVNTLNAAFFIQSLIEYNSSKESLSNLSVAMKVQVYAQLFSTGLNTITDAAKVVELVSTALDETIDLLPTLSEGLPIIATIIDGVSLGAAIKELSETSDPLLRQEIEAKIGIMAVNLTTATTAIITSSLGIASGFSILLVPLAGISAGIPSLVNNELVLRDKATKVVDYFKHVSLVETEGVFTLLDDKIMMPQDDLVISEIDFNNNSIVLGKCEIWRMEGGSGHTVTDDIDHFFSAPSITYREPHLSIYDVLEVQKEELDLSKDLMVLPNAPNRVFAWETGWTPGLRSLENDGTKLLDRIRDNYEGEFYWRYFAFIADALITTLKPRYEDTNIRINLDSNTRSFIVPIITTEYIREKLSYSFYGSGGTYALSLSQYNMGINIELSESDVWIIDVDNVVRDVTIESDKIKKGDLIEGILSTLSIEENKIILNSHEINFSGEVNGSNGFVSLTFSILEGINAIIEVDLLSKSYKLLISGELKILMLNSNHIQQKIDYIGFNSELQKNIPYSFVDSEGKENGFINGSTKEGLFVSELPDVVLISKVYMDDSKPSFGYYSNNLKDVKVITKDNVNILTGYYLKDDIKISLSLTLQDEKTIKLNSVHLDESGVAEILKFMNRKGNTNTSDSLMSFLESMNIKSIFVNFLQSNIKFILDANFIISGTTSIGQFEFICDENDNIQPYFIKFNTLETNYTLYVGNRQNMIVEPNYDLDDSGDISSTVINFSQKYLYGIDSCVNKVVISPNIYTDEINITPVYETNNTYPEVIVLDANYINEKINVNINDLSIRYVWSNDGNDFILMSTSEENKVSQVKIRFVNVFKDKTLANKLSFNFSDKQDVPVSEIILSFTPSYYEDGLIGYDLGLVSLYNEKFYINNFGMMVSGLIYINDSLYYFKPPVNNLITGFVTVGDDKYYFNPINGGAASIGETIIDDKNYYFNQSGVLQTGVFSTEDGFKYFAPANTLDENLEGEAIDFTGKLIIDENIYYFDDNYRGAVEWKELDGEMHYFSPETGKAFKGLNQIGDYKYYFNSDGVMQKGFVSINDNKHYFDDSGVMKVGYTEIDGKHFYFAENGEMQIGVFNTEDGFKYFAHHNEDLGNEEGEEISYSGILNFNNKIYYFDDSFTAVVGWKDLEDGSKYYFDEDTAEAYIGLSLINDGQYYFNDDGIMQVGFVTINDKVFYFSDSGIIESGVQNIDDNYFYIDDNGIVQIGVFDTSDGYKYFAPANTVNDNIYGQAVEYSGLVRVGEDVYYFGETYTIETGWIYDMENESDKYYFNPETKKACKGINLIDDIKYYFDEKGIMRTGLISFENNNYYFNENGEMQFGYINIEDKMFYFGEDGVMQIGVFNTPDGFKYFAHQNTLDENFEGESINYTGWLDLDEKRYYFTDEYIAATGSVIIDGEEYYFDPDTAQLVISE

[3] = target: Clostridium difficile toxin A (TcdA) holotoxin (Clostridium difficile) (UniProt P16154); test: cell-based or functional assay
Sequence of Clostridium difficile toxin A (TcdA) holotoxin (Clostridium difficile) (P16154 whole entry): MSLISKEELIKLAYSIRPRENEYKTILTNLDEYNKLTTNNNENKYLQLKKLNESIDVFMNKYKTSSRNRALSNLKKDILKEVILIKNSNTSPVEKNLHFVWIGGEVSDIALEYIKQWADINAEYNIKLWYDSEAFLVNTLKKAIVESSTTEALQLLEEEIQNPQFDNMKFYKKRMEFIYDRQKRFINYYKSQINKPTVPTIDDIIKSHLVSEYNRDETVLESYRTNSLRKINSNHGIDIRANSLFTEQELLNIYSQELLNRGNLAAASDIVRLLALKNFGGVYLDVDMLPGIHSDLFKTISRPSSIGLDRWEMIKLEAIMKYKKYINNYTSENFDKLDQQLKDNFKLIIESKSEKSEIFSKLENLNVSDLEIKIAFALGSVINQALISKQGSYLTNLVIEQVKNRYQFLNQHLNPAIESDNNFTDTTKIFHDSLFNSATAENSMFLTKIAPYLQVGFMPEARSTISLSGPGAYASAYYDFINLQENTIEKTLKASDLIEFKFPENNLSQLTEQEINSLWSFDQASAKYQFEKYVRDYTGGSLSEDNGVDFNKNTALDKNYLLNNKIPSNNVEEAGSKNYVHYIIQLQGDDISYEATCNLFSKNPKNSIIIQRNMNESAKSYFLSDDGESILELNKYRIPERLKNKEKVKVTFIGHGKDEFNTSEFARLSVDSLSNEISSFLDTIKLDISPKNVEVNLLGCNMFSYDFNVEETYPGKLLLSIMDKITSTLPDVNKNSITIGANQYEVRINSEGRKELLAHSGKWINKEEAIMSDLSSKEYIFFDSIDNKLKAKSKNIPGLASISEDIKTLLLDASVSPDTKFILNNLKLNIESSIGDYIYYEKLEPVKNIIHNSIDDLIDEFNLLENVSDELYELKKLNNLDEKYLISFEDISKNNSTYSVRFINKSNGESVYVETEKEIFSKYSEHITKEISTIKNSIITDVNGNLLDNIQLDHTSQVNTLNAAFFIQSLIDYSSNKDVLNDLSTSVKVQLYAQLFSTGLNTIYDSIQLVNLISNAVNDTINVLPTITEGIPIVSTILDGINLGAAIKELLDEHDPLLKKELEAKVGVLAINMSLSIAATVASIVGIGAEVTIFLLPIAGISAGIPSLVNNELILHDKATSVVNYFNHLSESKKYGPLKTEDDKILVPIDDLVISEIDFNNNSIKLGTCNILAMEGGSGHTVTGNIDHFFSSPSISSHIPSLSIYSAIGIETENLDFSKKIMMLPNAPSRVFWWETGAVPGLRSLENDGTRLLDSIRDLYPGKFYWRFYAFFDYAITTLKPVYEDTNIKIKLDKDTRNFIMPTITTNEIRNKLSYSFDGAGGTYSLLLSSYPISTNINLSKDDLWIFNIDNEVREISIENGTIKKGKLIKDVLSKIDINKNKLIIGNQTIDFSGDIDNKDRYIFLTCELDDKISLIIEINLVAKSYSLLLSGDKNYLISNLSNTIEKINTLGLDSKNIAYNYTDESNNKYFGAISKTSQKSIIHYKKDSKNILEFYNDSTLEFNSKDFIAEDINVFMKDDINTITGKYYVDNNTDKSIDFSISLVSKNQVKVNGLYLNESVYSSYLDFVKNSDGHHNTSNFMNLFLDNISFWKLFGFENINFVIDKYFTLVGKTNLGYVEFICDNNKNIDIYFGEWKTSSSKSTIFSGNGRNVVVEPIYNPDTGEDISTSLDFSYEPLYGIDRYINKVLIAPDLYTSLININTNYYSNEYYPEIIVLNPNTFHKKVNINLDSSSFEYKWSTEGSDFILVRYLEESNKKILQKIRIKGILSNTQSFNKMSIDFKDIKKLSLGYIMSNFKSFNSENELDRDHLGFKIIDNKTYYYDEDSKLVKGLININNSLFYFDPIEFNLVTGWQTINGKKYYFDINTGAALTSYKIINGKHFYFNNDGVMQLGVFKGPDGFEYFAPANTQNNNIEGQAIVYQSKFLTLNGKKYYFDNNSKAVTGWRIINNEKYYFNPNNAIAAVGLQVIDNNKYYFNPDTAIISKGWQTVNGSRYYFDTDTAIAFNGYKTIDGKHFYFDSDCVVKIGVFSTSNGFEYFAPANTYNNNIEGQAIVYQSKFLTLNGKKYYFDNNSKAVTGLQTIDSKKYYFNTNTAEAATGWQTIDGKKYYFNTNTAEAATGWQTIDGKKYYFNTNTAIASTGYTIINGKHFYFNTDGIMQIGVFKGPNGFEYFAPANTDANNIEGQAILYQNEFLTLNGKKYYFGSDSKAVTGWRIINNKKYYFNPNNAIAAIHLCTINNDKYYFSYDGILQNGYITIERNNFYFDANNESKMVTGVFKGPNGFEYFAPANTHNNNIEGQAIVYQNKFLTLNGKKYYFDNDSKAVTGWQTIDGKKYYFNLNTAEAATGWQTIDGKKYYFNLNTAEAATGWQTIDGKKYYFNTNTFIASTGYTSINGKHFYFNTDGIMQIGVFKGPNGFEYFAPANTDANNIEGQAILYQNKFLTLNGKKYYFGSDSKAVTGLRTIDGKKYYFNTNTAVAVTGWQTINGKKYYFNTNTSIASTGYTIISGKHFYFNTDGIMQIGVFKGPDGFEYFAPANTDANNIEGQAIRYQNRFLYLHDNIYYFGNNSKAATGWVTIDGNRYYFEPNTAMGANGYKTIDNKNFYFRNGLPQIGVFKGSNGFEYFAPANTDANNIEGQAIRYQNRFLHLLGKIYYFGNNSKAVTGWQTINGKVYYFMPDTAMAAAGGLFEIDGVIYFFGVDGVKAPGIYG

[4] = target: BoNT/A heavy chain (Clostridium botulinum, UniProt P0DPI1 449-1296); test: ELISA on BoNT subunits / Western blot of reduced holotoxin
[5] = target: purified recombinant BoNT/A light chain (Clostridium botulinum, UniProt P0DPI1 2-448); test: as above
[6] = target: T1, Botulinum neurotoxin serotype A1 …; test: method not stated

B1: JDQ-B2 (VHH)
VHH: QVQLVESGGGLVQPGGSLRLSCTVSGSIFDLPGMNWYRQAPGAQRELVADISSDGRRTNYADSVKGRFTMSRDNAKKTVYLQMDSLKPDDTAVYYCNVKFTHHWGQGIQVTVSS
- binding result [1]: binds

B2: JDQ-C5 (VHH)
VHH: B1 VHH with D30G, N35S, R56G, N59H, M70I, A75D
- binding result [1]: binds

B3: 5D/AA6 VHH heterodimer (bispecific antibody)
chain: QVQLVESGGGLVQPGGSLRLSCEASGFTLDYYGIGWFRQPPGKEREAVSYISASARTILYADSVKGRFTISRDNAKNAVYLQMNSLKREDTAVYYCARRRFSASSVNRWLADDYDVWGRGTQVAVSSEPKTPKPQGGGGSGGGGSGGGGSQLQLVETGGGLVQPGGSLRLSCAASGFTFSDYVMTWVRQAPGKGPEWIATINTDGSTMRDDSTKGRFTISRDNAKNTLYLQMTSLKPEDTALYYCARGRVISASAIRGAVRGPGTQVTVSSEPKTPKPQP
- fold neutralization of TcdB against the 5D/AH3 heterodimer [2]: 3 fold and 4 fold
- fold neutralization of TcdA against the 5D/AH3 heterodimer (CT26 cell rounding) [3]: 5 fold

B4: ciA-A5 (VHH)
VHH: QVQLVESGGGLVQPGGSLRLSCAASAGNLDYYAIGWFRQAPGKEREGVSCISSSDGSTVYTDSVKGRFTISRDNTKNTVDLQMDNLKPEDTAVYYCATVVNYYCTAGGSIHASPYEIWGQGTQVTVSS
- binding result [4]: no binding
- binding result [5]: no binding

B5: ciA-G5 (VHH)
VHH: QVQLVESGGGLVQPGGSLRLSCQVSGFTFGDWVMSWFRQAPGKEREFVASITATSSLKYYADSVKGRFTISRDNVNNTLFLQMDRLKSEDTAVYYCRSPNYWGQGTQVTVSA
- binding result [4]: no binding
- binding result [5]: no binding

B6: JDQ-E9 (VHH)
VHH: QVQLVESGGGLVRPGGSLRLSCVVSGFAYEMPMMGWYRQAPGNQRELVATIGTGGRMNYADSVKGRFTISRDNAKNTVYLQMNSLKPEDTAAYYCKIEFTNYWGQGTQVTVSS
- binding result [1]: binds

B7: JDQ-F9 (VHH)
VHH: QVQLVESGGGLVQDGGSLRLSCTTSGSIDSFNAIEWYRQAPGKQRELVASISSDGRRTNYADSVKGRFTISGDNAKNTVYLQMNSLKPEDTAVYYCHRPFTHYWGQGTQVTVSS
- binding result [1]: binds

B8: scFv#7 (scFv)
scFv: SYELTQPPSMSVALGQTAKVTCQGDNLENFYVQWHQQKPGQAPVTVIFQDNKRPSGIPDRFSGSNSGNTATLTISGARTEDEADYYCQSGHSSIGGVFGSGTSLTVLGQPAAAGGGGSGGGGSGGGGSARQVQLQESGPSLVKPSQTLSLTCTVSGFSLTGNSVTWVRQAPGNVPEWLGGISRGGRTYYDTALKSRLSITRDTSKRQVSLSLSSVTTEDTAMYFCARSAYSTLYDYEYAADIYDWGPGLLVTVSSTSGAPVPYPDPLEPRAA
- Kd [6]: ~1 nM
